PMC9157410

Molecular target: recombinant TpiA (triosephosphate isomerase of Streptococcus pneumoniae D39) (S. pneumoniae D39) (UniProt P66943)
Test: SPR; Biacore X100; rTpiA amine-coupled on a CM5 chip; plasminogen, laminin and BSA injected at 3.125 to 50 nM, contact time 120 s, 20 µL/min; 100 mM HEPES pH 7.4, 150 mM NaCl, 3 mM EDTA, 0.005% surfactant P20; apparent constants

UniProt P66943, sequence (P66943 2-252): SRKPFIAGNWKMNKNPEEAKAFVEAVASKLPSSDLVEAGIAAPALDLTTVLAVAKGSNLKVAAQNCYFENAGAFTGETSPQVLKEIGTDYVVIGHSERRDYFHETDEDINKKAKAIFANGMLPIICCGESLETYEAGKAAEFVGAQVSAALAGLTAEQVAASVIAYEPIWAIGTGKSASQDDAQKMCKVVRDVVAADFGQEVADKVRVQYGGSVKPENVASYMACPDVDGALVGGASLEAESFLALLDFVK

plasminogen from human plasma (natural protein)
Kd: 411 nM
koff: 0.00553 s⁻¹
kon: 13400 M⁻¹ s⁻¹
